In patent US20240209076A1 (KODIAK SCIENCES, published 2024):

B1: anti-IL-6 antibody, heavy chain T63H, G66D / light chain M32L, M50D, N52S, M88Q (antibody, IgG1, V domains shown)
VH: EVQLVESGGGLVQPGGSLRLSCAASGFTFSPFAMSWVRQAPGKGLEWVAKISPGGSWTYYSDHVTDRFTFSLDTSKSTAYLQMNSLRAEDTAVYYCARQLWGYYALDIWGQGTLVTVSS
VL: DIQLTQSPSSLSASVGDRVTITCSASISVSYLYWYQQKPGKAPKLLIYDDSSLASGVPSRFSGSGSGTDFTLTISSLQPEDFATYYCQQWSGYPYTFGQGTKVEIK
notes: Full IgG1 (Expi293); VL = variant III
B2: anti-IL-6 antibody, heavy chain T65P, G66D / light chain M32L, M50D, N52S, M88Q (antibody, IgG1, V domains shown)
VH: EVQLVESGGGLVQPGGSLRLSCAASGFTFSPFAMSWVRQAPGKGLEWVAKISPGGSWTYYSDTVPDRFTFSLDTSKSTAYLQMNSLRAEDTAVYYCARQLWGYYALDIWGQGTLVTVSS
VL: DIQLTQSPSSLSASVGDRVTITCSASISVSYLYWYQQKPGKAPKLLIYDDSSLASGVPSRFSGSGSGTDFTLTISSLQPEDFATYYCQQWSGYPYTFGQGTKVEIK
notes: as for B1
B3: anti-IL-6 antibody, heavy chain T65A, G66D / light chain M32L, M50D, N52S, M88Q (antibody, IgG1, V domains shown)
VH: EVQLVESGGGLVQPGGSLRLSCAASGFTFSPFAMSWVRQAPGKGLEWVAKISPGGSWTYYSDTVADRFTFSLDTSKSTAYLQMNSLRAEDTAVYYCARQLWGYYALDIWGQGTLVTVSS
VL: DIQLTQSPSSLSASVGDRVTITCSASISVSYLYWYQQKPGKAPKLLIYDDSSLASGVPSRFSGSGSGTDFTLTISSLQPEDFATYYCQQWSGYPYTFGQGTKVEIK
notes: as for B1
B4: anti-IL-6 antibody, heavy chain T65H, G66D / light chain M32L, M50D, N52S, M88Q (antibody, IgG1, V domains shown)
VH: EVQLVESGGGLVQPGGSLRLSCAASGFTFSPFAMSWVRQAPGKGLEWVAKISPGGSWTYYSDTVHDRFTFSLDTSKSTAYLQMNSLRAEDTAVYYCARQLWGYYALDIWGQGTLVTVSS
VL: DIQLTQSPSSLSASVGDRVTITCSASISVSYLYWYQQKPGKAPKLLIYDDSSLASGVPSRFSGSGSGTDFTLTISSLQPEDFATYYCQQWSGYPYTFGQGTKVEIK
notes: as for B1
B5: anti-IL-6 antibody, heavy chain T63I, G66D / light chain M32L, M50D, N52S, M88Q (antibody, IgG1, V domains shown)
VH: EVQLVESGGGLVQPGGSLRLSCAASGFTFSPFAMSWVRQAPGKGLEWVAKISPGGSWTYYSDIVTDRFTFSLDTSKSTAYLQMNSLRAEDTAVYYCARQLWGYYALDIWGQGTLVTVSS
VL: DIQLTQSPSSLSASVGDRVTITCSASISVSYLYWYQQKPGKAPKLLIYDDSSLASGVPSRFSGSGSGTDFTLTISSLQPEDFATYYCQQWSGYPYTFGQGTKVEIK
notes: as for B1
B6: anti-IL-6 antibody, heavy chain T65E, G66D / light chain M32L, M50D, N52S, M88Q (antibody, IgG1, V domains shown)
VH: EVQLVESGGGLVQPGGSLRLSCAASGFTFSPFAMSWVRQAPGKGLEWVAKISPGGSWTYYSDTVEDRFTFSLDTSKSTAYLQMNSLRAEDTAVYYCARQLWGYYALDIWGQGTLVTVSS
VL: DIQLTQSPSSLSASVGDRVTITCSASISVSYLYWYQQKPGKAPKLLIYDDSSLASGVPSRFSGSGSGTDFTLTISSLQPEDFATYYCQQWSGYPYTFGQGTKVEIK
notes: as for B1
B7: anti-IL-6 antibody, heavy chain T63R, G66D / light chain M32L, M50D, N52S, M88Q (antibody, IgG1, V domains shown)
VH: EVQLVESGGGLVQPGGSLRLSCAASGFTFSPFAMSWVRQAPGKGLEWVAKISPGGSWTYYSDRVTDRFTFSLDTSKSTAYLQMNSLRAEDTAVYYCARQLWGYYALDIWGQGTLVTVSS
VL: DIQLTQSPSSLSASVGDRVTITCSASISVSYLYWYQQKPGKAPKLLIYDDSSLASGVPSRFSGSGSGTDFTLTISSLQPEDFATYYCQQWSGYPYTFGQGTKVEIK
notes: as for B1
B8: anti-IL-6 antibody, heavy chain T65L, G66D / light chain M32L, M50D, N52S, M88Q (antibody, IgG1, V domains shown)
VH: EVQLVESGGGLVQPGGSLRLSCAASGFTFSPFAMSWVRQAPGKGLEWVAKISPGGSWTYYSDTVLDRFTFSLDTSKSTAYLQMNSLRAEDTAVYYCARQLWGYYALDIWGQGTLVTVSS
VL: DIQLTQSPSSLSASVGDRVTITCSASISVSYLYWYQQKPGKAPKLLIYDDSSLASGVPSRFSGSGSGTDFTLTISSLQPEDFATYYCQQWSGYPYTFGQGTKVEIK
notes: as for B1
B9: anti-IL-6 antibody, heavy chain T63L, G66D / light chain M32L, M50D, N52S, M88Q (antibody, IgG1, V domains shown)
VH: EVQLVESGGGLVQPGGSLRLSCAASGFTFSPFAMSWVRQAPGKGLEWVAKISPGGSWTYYSDLVTDRFTFSLDTSKSTAYLQMNSLRAEDTAVYYCARQLWGYYALDIWGQGTLVTVSS
VL: DIQLTQSPSSLSASVGDRVTITCSASISVSYLYWYQQKPGKAPKLLIYDDSSLASGVPSRFSGSGSGTDFTLTISSLQPEDFATYYCQQWSGYPYTFGQGTKVEIK
notes: as for B1
B10: anti-IL-6 antibody, heavy chain T63S, G66D / light chain M32L, M50D, N52S, M88Q (antibody, IgG1, V domains shown)
VH: EVQLVESGGGLVQPGGSLRLSCAASGFTFSPFAMSWVRQAPGKGLEWVAKISPGGSWTYYSDSVTDRFTFSLDTSKSTAYLQMNSLRAEDTAVYYCARQLWGYYALDIWGQGTLVTVSS
VL: DIQLTQSPSSLSASVGDRVTITCSASISVSYLYWYQQKPGKAPKLLIYDDSSLASGVPSRFSGSGSGTDFTLTISSLQPEDFATYYCQQWSGYPYTFGQGTKVEIK
notes: as for B1
B11: anti-IL-6 antibody, heavy chain T63V, G66D / light chain M32L, M50D, N52S, M88Q (antibody, IgG1, V domains shown)
VH: EVQLVESGGGLVQPGGSLRLSCAASGFTFSPFAMSWVRQAPGKGLEWVAKISPGGSWTYYSDVVTDRFTFSLDTSKSTAYLQMNSLRAEDTAVYYCARQLWGYYALDIWGQGTLVTVSS
VL: DIQLTQSPSSLSASVGDRVTITCSASISVSYLYWYQQKPGKAPKLLIYDDSSLASGVPSRFSGSGSGTDFTLTISSLQPEDFATYYCQQWSGYPYTFGQGTKVEIK
notes: as for B1
B12: anti-IL-6 antibody, heavy chain T65R, G66D / light chain M32L, M50D, N52S, M88Q (antibody, IgG1, V domains shown)
VH: EVQLVESGGGLVQPGGSLRLSCAASGFTFSPFAMSWVRQAPGKGLEWVAKISPGGSWTYYSDTVRDRFTFSLDTSKSTAYLQMNSLRAEDTAVYYCARQLWGYYALDIWGQGTLVTVSS
VL: DIQLTQSPSSLSASVGDRVTITCSASISVSYLYWYQQKPGKAPKLLIYDDSSLASGVPSRFSGSGSGTDFTLTISSLQPEDFATYYCQQWSGYPYTFGQGTKVEIK
notes: as for B1
B13: anti-IL-6 antibody, heavy chain T65G, G66D / light chain M32L, M50D, N52S, M88Q (antibody, IgG1, V domains shown)
VH: EVQLVESGGGLVQPGGSLRLSCAASGFTFSPFAMSWVRQAPGKGLEWVAKISPGGSWTYYSDTVGDRFTFSLDTSKSTAYLQMNSLRAEDTAVYYCARQLWGYYALDIWGQGTLVTVSS
VL: DIQLTQSPSSLSASVGDRVTITCSASISVSYLYWYQQKPGKAPKLLIYDDSSLASGVPSRFSGSGSGTDFTLTISSLQPEDFATYYCQQWSGYPYTFGQGTKVEIK
notes: as for B1
B14: anti-IL-6 antibody, heavy chain T65F, G66D / light chain M32L, M50D, N52S, M88Q (antibody, IgG1, V domains shown)
VH: EVQLVESGGGLVQPGGSLRLSCAASGFTFSPFAMSWVRQAPGKGLEWVAKISPGGSWTYYSDTVFDRFTFSLDTSKSTAYLQMNSLRAEDTAVYYCARQLWGYYALDIWGQGTLVTVSS
VL: DIQLTQSPSSLSASVGDRVTITCSASISVSYLYWYQQKPGKAPKLLIYDDSSLASGVPSRFSGSGSGTDFTLTISSLQPEDFATYYCQQWSGYPYTFGQGTKVEIK
notes: as for B1
B15: anti-IL-6 antibody, heavy chain T65D, G66D / light chain M32L, M50D, N52S, M88Q (antibody, IgG1, V domains shown)
VH: EVQLVESGGGLVQPGGSLRLSCAASGFTFSPFAMSWVRQAPGKGLEWVAKISPGGSWTYYSDTVDDRFTFSLDTSKSTAYLQMNSLRAEDTAVYYCARQLWGYYALDIWGQGTLVTVSS
VL: DIQLTQSPSSLSASVGDRVTITCSASISVSYLYWYQQKPGKAPKLLIYDDSSLASGVPSRFSGSGSGTDFTLTISSLQPEDFATYYCQQWSGYPYTFGQGTKVEIK
notes: as for B1
B16: anti-IL-6 antibody, heavy chain T63W, G66D / light chain M32L, M50D, N52S, M88Q (antibody, IgG1, V domains shown)
VH: EVQLVESGGGLVQPGGSLRLSCAASGFTFSPFAMSWVRQAPGKGLEWVAKISPGGSWTYYSDWVTDRFTFSLDTSKSTAYLQMNSLRAEDTAVYYCARQLWGYYALDIWGQGTLVTVSS
VL: DIQLTQSPSSLSASVGDRVTITCSASISVSYLYWYQQKPGKAPKLLIYDDSSLASGVPSRFSGSGSGTDFTLTISSLQPEDFATYYCQQWSGYPYTFGQGTKVEIK
notes: as for B1
B17: anti-IL-6 antibody, heavy chain T65S, G66D / light chain M32L, M50D, N52S, M88Q (antibody, IgG1, V domains shown)
VH: EVQLVESGGGLVQPGGSLRLSCAASGFTFSPFAMSWVRQAPGKGLEWVAKISPGGSWTYYSDTVSDRFTFSLDTSKSTAYLQMNSLRAEDTAVYYCARQLWGYYALDIWGQGTLVTVSS
VL: DIQLTQSPSSLSASVGDRVTITCSASISVSYLYWYQQKPGKAPKLLIYDDSSLASGVPSRFSGSGSGTDFTLTISSLQPEDFATYYCQQWSGYPYTFGQGTKVEIK
notes: as for B1
B18: anti-IL-6 antibody, heavy chain T63P, G66D / light chain M32L, M50D, N52S, M88Q (antibody, IgG1, V domains shown)
VH: EVQLVESGGGLVQPGGSLRLSCAASGFTFSPFAMSWVRQAPGKGLEWVAKISPGGSWTYYSDPVTDRFTFSLDTSKSTAYLQMNSLRAEDTAVYYCARQLWGYYALDIWGQGTLVTVSS
VL: DIQLTQSPSSLSASVGDRVTITCSASISVSYLYWYQQKPGKAPKLLIYDDSSLASGVPSRFSGSGSGTDFTLTISSLQPEDFATYYCQQWSGYPYTFGQGTKVEIK
notes: as for B1
B19: anti-IL-6 antibody, heavy chain T63Y, G66D / light chain M32L, M50D, N52S, M88Q (antibody, IgG1, V domains shown)
VH: EVQLVESGGGLVQPGGSLRLSCAASGFTFSPFAMSWVRQAPGKGLEWVAKISPGGSWTYYSDYVTDRFTFSLDTSKSTAYLQMNSLRAEDTAVYYCARQLWGYYALDIWGQGTLVTVSS
VL: DIQLTQSPSSLSASVGDRVTITCSASISVSYLYWYQQKPGKAPKLLIYDDSSLASGVPSRFSGSGSGTDFTLTISSLQPEDFATYYCQQWSGYPYTFGQGTKVEIK
notes: as for B1
B20: anti-IL-6 antibody, heavy chain T65K, G66D / light chain M32L, M50D, N52S, M88Q (antibody, IgG1, V domains shown)
VH: EVQLVESGGGLVQPGGSLRLSCAASGFTFSPFAMSWVRQAPGKGLEWVAKISPGGSWTYYSDTVKDRFTFSLDTSKSTAYLQMNSLRAEDTAVYYCARQLWGYYALDIWGQGTLVTVSS
VL: DIQLTQSPSSLSASVGDRVTITCSASISVSYLYWYQQKPGKAPKLLIYDDSSLASGVPSRFSGSGSGTDFTLTISSLQPEDFATYYCQQWSGYPYTFGQGTKVEIK
notes: as for B1

target: T1, human IL-6 (human, UniProt P05231 30-212); test: SPR Biacore, supernatant Ab on Protein A chip, 37 C
T1 construct: IL-6 flowed over captured antibodies
T1 sequence (P05231 30-212 limits assumed): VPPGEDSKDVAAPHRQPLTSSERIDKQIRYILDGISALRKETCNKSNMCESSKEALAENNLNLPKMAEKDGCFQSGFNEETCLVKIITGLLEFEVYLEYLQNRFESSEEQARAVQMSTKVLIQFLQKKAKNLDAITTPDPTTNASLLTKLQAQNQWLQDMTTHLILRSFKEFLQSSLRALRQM

Binder | Kd [nM] | koff [s⁻¹] | kon [M⁻¹ s⁻¹]
B1 | 0.28 | 0.000481 | 1.72e+06
B2 | 0.601 | 0.00108 | 1.79e+06
B3 | 0.239 | 0.000542 | 2.27e+06
B4 | 0.297 | 0.000423 | 1.43e+06
B5 | 0.288 | 0.000446 | 1.55e+06
B6 | 0.279 | 0.000474 | 1.7e+06
B7 | 0.273 | 0.000526 | 1.92e+06
B8 | 0.293 | 0.000446 | 1.53e+06
B9 | 0.283 | 0.000454 | 1.6e+06
B10 | 0.278 | 0.000499 | 1.8e+06
B11 | 0.274 | 0.00043 | 1.57e+06
B12 | 0.327 | 0.000532 | 1.63e+06
B13 | 0.311 | 0.000477 | 1.53e+06
B14 | 0.291 | 0.000391 | 1.34e+06
B15 | 0.465 | 0.00048 | 1.03e+06
B16 | 0.286 | 0.000449 | 1.57e+06
B17 | 0.31 | 0.000441 | 1.42e+06
B18 | 0.246 | 0.000419 | 1.7e+06
B19 | 0.241 | 0.000459 | 1.91e+06
B20 | 0.356 | 0.000579 | 1.63e+06
